Patent US20230128688A1 (published 2023)

How the values were obtained:
CD20 [1] = target: T1, CD20 (UniProt P11836 1-297, limits assumed); assay: Octet bio-layer interferometry, Protein A biosensors
T1 construct: Used in the Octet assay with Protein A biosensors
T1 sequence (looked up): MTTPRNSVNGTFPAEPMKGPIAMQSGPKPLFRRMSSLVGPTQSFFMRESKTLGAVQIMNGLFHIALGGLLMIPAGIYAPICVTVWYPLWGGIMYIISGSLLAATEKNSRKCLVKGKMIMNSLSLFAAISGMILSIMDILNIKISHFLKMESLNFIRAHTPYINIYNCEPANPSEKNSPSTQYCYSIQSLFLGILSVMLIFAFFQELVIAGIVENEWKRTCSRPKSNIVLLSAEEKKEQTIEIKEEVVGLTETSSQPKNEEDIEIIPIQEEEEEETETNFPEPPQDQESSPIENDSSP

CD20 [2] = target: T1, CD20; assay: Octet bio-layer interferometry, Protein A biosensors, 1:1 global fit

B1: III-1 (CD20×CD3; rituximab×SP34 scFv) (bispecific antibody)
chain 1: QVQLQQPGAELVKPGASVKMSCKASGYTFTSYNMHWVKQTPGRGLEWIGAIYPGNGDTSYNQKFKGKATLTADKSSSTAYMQLSSLTSEDSAVYYCARSTYYGGDWYFNVWGAGTTVTVSA
chain 2: QIVLSQSPAILSASPGEKVTMTCRASSSVSYIHWFQQKPGSSPKPWIYATSNLASGVPVRFSGSGSGTSYSLTISRVEAEDAATYYCQQWTSNPPTFGGGTKLEIK
chain 3: EVQLVESGGGLVQPGGSLKLSCAASGFTFNTYAMNWVRQAPGKGLEWVGRIRSKYNNYATYYADSVKGRFTISRDDSKNTLYLQMNSLRAEDTAVYYCVRHGNFGNSYVSWFAYWGQGTLVTVSSGGGGSGGGGSGGGGSQAVVTQEPSLTVSPGGTVTLTCGSSTGAVTTSNYANWVQQKPGQAPRGLIGGTNKRAPGVPARFSGSLLGGKAALTLSGAQPEDEAEYYCALWYSNLWVFGGGTKLTVLGSEQKLISEEDLGSGGGGSLPET
modifications: C-terminal LPETG sortase tag joined through the (G)5-PEG linker from I-53 to a lysine of rituximab
Kd (CD20 [1]): 0.75 nM | Kd (CD20 [2]): 1.06 nM
